Data reported in PMC11381654, “Structural insight into interleukin‐4Rα and interleukin‐5 inhibition by nanobodies from a bispecific antibody” (MedComm, 2020).

Molecular target: human IL‐4Rα (human, UniProt P24394, N‐glycosylation sites (modelled in the crystal structure; positions not given))
Assay: cell-based or functional assay

B1: dAb1 (VHH)
VHH: QVQLVESGGGLVQPGGSLRLSCAASGDFYCMAWFRQAPGKEREAVAAIRSGGRSTYYADSVKGRFTISRDNSKNTLYLQMNSLKAEDTAVYYCAVGVDGNCRNYWGQGTLVTVSS
IC50 in the IL‐4‐induced TF‐1 cell proliferation assay (blocks IL‐4 with IL‐4Rα): ~150 pM
IC50 in the IL‐13‐induced TF‐1 cell proliferation assay (blocks IL‐13 with IL‐4Rα): ~150 pM
